Test results: PMC7750480, “A hybrid approach reveals the allosteric regulation of GTP cyclohydrolase I” (Proceedings of the National Academy of Sciences of the …, 2020)

What was measured:
Type in all cases: biochemical, human
Settings in all cases: other: substrate GTP 1-2000 µM, without GFRP, not stimulated/inhibited; pH 7.5; 37.0 °C
[1] = substrate: Nc1nc2c(ncn2[C@@H]2O[C@H](COP(=O)(O)OP(=O)(O)OP(=O)(O)O)[C@@H](O)[C@H]2O)c(=O)[nH]1; test: enzyme kinetics, H2NTP formation at 330 nm, R241A-GCH1
Method: (§1) In order to test the role of the key residues H126, D127, E128, R235, and R241 involved in allosteric inhibitor binding and conformational change, various point mutants were prepared and tested for their ability to be stimulated and inhibited by effector molecules in the presence or absence of GFRP. […] Enzyme activity was evaluated using an activity assay measuring the formation of the product H2NTP at 330 nm with increasing GTP concentrations.
(§2) GTPCH-I specific enzyme activity was determined by spectrometric measuring of the concentration of its direct product H2NTP. Synergy H1 (BioTek Instruments) and Gen5 2.01 software were used to evaluate H2NTP concentration and the maximal turnover rate (Vmax) within each measuring interval. H2NTP concentration was measured at 330 nm over a measuring period of 2 h using a measuring interval of 2 min to 4 min at 37 °C. Samples were prepared using 2 μM GTPCH-I, varying concentrations of GTP (1 μM to 2,000 µM) and in the absence or presence of 15 mM phenylalanine, 0.1 mM BH4, or 3 μM GFRP. The assay buffer used was 50 mM Tris/HCl, pH 7.5, 100 mM KCl. The specific enzyme activity (A) was calculated using the path length of 0.15 cm and the extinction coefficient […] = 6,300 M^−1⋅cm^−1 H2NTP. […] All enzymatic data were, at least, measured in triplicate (n = 3).

[2] = substrate: Nc1nc2c(ncn2[C@@H]2O[C@H](COP(=O)(O)OP(=O)(O)OP(=O)(O)O)[C@@H](O)[C@H]2O)c(=O)[nH]1; test: enzyme kinetics, H2NTP formation at 330 nm, R235A-GCH1
Method: as §1, §2

[3] = substrate: Nc1nc2c(ncn2[C@@H]2O[C@H](COP(=O)(O)OP(=O)(O)OP(=O)(O)O)[C@@H](O)[C@H]2O)c(=O)[nH]1; test: enzyme kinetics, H2NTP formation at 330 nm, F122A GCH1
Method: as §1, §2

[4] = substrate: Nc1nc2c(ncn2[C@@H]2O[C@H](COP(=O)(O)OP(=O)(O)OP(=O)(O)O)[C@@H](O)[C@H]2O)c(=O)[nH]1; test: enzyme kinetics, H2NTP formation at 330 nm, D127A GCH1
Method: as §1, §2

B1: R241A-GCH1 (Homo sapiens; R241A) (protein)
chain: PEAKSAQPADGWKGERPRSEEDNELNLPNLAAAYSSILSSLGENPQRQGLLKTPWRAASAMQFFTKGYQETISDVLNDAIFDEDHDEMVIVKDIDMFSMCEHHLVPFVGKVHIGYLPNKQVLGLSKLARIVEIYSRRLQVQERLTKQIAVAITEALRPAGVGVVVEATHMCMVMRGVQKMNSKTVTSTMLGVFREDPKTAEEFLTLIRS
notes: The hGCH1 (42-250, N-terminal 6xHis Tag and TEV cleavage site); 6xHis (N); TEV cleavage site (N); made in house; host or cells: E. coli BL21(DE3)
Km [1]: 306 µM

B2: R235A-GCH1 (Homo sapiens; R235A) (protein)
chain: PEAKSAQPADGWKGERPRSEEDNELNLPNLAAAYSSILSSLGENPQRQGLLKTPWRAASAMQFFTKGYQETISDVLNDAIFDEDHDEMVIVKDIDMFSMCEHHLVPFVGKVHIGYLPNKQVLGLSKLARIVEIYSRRLQVQERLTKQIAVAITEALRPAGVGVVVEATHMCMVMRGVQKMNSKTVTSTMLGVFAEDPKTREEFLTLIRS
notes: as for B1
Km [2]: 328 µM

B3: F122A GCH1 (Homo sapiens; F122A) (protein)
chain: PEAKSAQPADGWKGERPRSEEDNELNLPNLAAAYSSILSSLGENPQRQGLLKTPWRAASAMQFFTKGYQETISDVLNDAIADEDHDEMVIVKDIDMFSMCEHHLVPFVGKVHIGYLPNKQVLGLSKLARIVEIYSRRLQVQERLTKQIAVAITEALRPAGVGVVVEATHMCMVMRGVQKMNSKTVTSTMLGVFREDPKTREEFLTLIRS
notes: as for B1
Km [3]: 434 µM

B4: D127A GCH1 (Homo sapiens; D127A) (protein)
chain: PEAKSAQPADGWKGERPRSEEDNELNLPNLAAAYSSILSSLGENPQRQGLLKTPWRAASAMQFFTKGYQETISDVLNDAIFDEDHAEMVIVKDIDMFSMCEHHLVPFVGKVHIGYLPNKQVLGLSKLARIVEIYSRRLQVQERLTKQIAVAITEALRPAGVGVVVEATHMCMVMRGVQKMNSKTVTSTMLGVFREDPKTREEFLTLIRS
notes: as for B1
Km [4]: 483 µM
